Results reported in patent US20250034266A1 (ZAI LAB SHANGHAI, published 2025).

What was measured:
human CCR8 [1] = target: T1, human CCR8 (human, UniProt P51685 1-355); assay: cell-based or functional assay
human CCR8 [2] = target: T1, human CCR8; assay: FACS on HEK293-human CCR8 cells
human CCR1 = target: T2, human CCR1 (human, UniProt P32246 1-355); assay: FACS on ExpiCHO-S-human CCR1 cells
T2 construct: whole, on cells
T2 sequence (looked up): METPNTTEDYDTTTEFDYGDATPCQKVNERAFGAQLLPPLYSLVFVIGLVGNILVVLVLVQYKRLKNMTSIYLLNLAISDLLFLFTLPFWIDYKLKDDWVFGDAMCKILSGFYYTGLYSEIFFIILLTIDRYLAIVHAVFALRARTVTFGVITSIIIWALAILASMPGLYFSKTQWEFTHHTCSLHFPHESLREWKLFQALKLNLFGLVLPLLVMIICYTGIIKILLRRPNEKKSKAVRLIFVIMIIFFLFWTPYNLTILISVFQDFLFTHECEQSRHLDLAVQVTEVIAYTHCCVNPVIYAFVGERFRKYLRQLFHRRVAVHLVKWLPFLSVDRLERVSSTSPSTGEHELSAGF
Method: (§1) ExpiCHO-S cells were transiently transfected with human CCR1 or human CCR4. A total of 5×10⁴ cells for each well were seeded in 96-well plates and washed with FACS buffer (DPBS containing 1.5% FBS) for once. […] Cells were incubated with 50 μL of diluted antibodies at 4° C. for 1 hour. […] After primary antibody incubation, cells were washed for 3 times by FACS buffer. Then, cells were stained by Alexa Flu647 labeled anti-human IgG secondary antibody (Jackson ImmunoResearch, #109606170) or Alexa Flu647 labeled anti-mouse IgG secondary antibody (Jackson ImmunoResearch, #115605072) at 1:600 dilution in FACS buffer for 0.5 hour at 4° C. Flow cytometry was performed to measure the binding.

human CCR4 = target: T3, human CCR4 (human, UniProt P51679 1-360); assay: FACS on ExpiCHO-S-human CCR4 cells
T3 construct: whole, on cells
T3 sequence (looked up): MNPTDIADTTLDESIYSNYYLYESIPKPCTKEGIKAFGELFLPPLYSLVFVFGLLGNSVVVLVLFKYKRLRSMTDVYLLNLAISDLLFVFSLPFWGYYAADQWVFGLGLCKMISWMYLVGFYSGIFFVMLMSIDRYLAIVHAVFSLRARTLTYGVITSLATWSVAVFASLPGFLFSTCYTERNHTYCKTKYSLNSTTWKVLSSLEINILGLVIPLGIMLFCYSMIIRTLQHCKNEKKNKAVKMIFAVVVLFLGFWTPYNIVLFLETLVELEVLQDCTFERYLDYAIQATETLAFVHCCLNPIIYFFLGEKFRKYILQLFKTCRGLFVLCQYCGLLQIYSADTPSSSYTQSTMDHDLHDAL
Method: as §1

cynomolgus CCR8 = target: T4, cynomolgus CCR8 (cynomolgus, UniProt G7NYJ2 1-355); assay: FACS on ExpiCHO-S-cynomolgus CCR8 cells
T4 construct: whole, on cells

human CCR8 [3] = target: T1, human CCR8; assay: FACS, competition with AF647-human CCL1 on CHO-K1-human CCR8 cells

T1 sequence (P51685 whole entry): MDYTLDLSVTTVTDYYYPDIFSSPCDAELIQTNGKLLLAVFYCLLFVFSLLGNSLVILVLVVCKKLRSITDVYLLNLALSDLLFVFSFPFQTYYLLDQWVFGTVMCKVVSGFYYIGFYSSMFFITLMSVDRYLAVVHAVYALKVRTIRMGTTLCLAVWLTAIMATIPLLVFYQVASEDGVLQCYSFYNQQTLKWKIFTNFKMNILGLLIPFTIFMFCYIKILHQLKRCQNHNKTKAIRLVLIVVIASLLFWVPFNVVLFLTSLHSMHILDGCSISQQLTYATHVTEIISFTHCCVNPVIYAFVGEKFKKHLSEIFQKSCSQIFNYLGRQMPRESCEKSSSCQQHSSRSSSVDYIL
T4 sequence (G7NYJ2 entry or part of it): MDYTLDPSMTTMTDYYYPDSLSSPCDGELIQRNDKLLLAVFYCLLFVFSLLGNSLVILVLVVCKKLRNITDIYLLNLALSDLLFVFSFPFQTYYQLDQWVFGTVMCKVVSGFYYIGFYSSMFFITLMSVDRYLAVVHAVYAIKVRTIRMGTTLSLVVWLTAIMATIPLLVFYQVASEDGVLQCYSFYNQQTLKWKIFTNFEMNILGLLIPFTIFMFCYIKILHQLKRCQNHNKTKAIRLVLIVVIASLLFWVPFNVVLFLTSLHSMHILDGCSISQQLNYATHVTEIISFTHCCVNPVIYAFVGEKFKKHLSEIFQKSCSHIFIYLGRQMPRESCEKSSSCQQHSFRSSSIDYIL

B1: Hu348-4 (antibody, human IgG1, V domains shown)
VH: EVQLVESGGGLVQPGGSLKLSCATSGFSFSNYRMHWLRQASGKGLEWVGVITVKSDNYGANYAASVKGRFTISRDDSKSSVYLQMNSLKTEDTAVYYCSSLGRVAYWGQGTLVTVSS
VL: DIQMTQSPSSVSASVGDRVTITCKASQNVDTNVVWYQQKPGQSPKALIYSASSRYSGVPSRFSGSGSGTDFTLTISSLQPEDFATYYCQQHNSFPLTFGQGTKLEIK
notes: humanized, human IgG1; also called Hu348-4 HuIgG1
EC50, ADCC with human PBMC (human CCR8 [1]): 517 pM | Max specific lysis (%), ADCC with human PBMC (human CCR8 [1]): 13.5% | EC50 (human CCR8 [2]): 109 pM | Max MFI (human CCR8 [2]): 5120 MFI | binding result (human CCR1): no binding (tested: 200 nM) | binding result (human CCR4): no binding (tested: 200 nM) | EC50 (cynomolgus CCR8): 87 pM | Max MFI (cynomolgus CCR8): 534 MFI | IC50 (human CCR8 [3]): 151 pM | Max Inhibition (%) (human CCR8 [3]): 94.6%
